Where “and” joins values, the source holds several entries; their conditions need not be identical. Equal values may be shown once. Read-outs that look alike come from different tables or passages of the source. Each block holds one binder with its values, some of them ahead of it.
B3: NPM1_(120) (N-terminal domain, residues 1-120) (domain or fragment)
chain: MEDSMDMDMSPLRPQNYLFGCELKADKDYHFKVDNDENEHQLSLRTVSLGAGAKDELHIVEAEAMNYEGSPIKVTLATLKMSVQPTVSLGGFEITPPVVLRLKCGSGPVHISGQHLVAVE

Key:
Experiment in all cases: native MS
native MS [1] = molecular target: the molecule itself
[2] = molecular target: Nucleophosmin 1, full-length (FL NPM1) (human)
[3] = molecular target: B3
native MS [4] = molecular target: the molecule itself; remark: listed apart in the source

B1: NPM1_(188) (NTD and the acidic regions of the IDR, residues 1-188) (domain or fragment)
chain: MEDSMDMDMSPLRPQNYLFGCELKADKDYHFKVDNDENEHQLSLRTVSLGAGAKDELHIVEAEAMNYEGSPIKVTLATLKMSVQPTVSLGGFEITPPVVLRLKCGSGPVHISGQHLVAVEEDAESEDEEEEDVKLLSISGKRSAPGGGSKVPQKKVKLAADEDDDDDDEEDDDEDDDDDDFDDEEAEE
stoichiometry N (native MS [1]): 5 and 10

binding result [2]: binds
binding result [3]: binds
Binder: RRRREGKTDYYARKRLV [rpL5_(21-37) (residues 21-37 of ribosomal protein L5)]

B2: NPM1_(ΔIDR) (NTD and CTD linked without the IDR) (other)
chain: MEDSMDMDMSPLRPQNYLFGCELKADKDYHFKVDNDENEHQLSLRTVSLGAGAKDELHIVEAEAMNYEGSPIKVTLATLKMSVQPTVSLGGFEITPPVVLRLKCGSGPVHISGQHLVAVEPSSVEDIKAKMQASIEKGGSLPKVEAKFINYVKNCFRMTDQEAIQDLWQWRKSL
stoichiometry N (native MS [1]): 10 and 5

Binder: B3
stoichiometry N (native MS [4]): ≥ 25 subunits
